Laboratory results from US20080318857A1 (MEDICAL COLLEGE OF GEORGIA RESEARCH INSTITUTE, published 2008).

Target: T1, VEGFR-2 (KDR), endogenous in A375 human malignant melanoma cells (human, UniProt P35968 20-1356, limits assumed)
T1 construct: Endogenous protein in cell lysate; also called Flk
Assay: co-immunoprecipitation: anti-FLT IP of transfected hypoxic A375 cell fraction, Western blot with anti-VEGFR-2
Method: HMMCs transfected with pCMV.Flt23K or pCMV.Flt24K were subjected to hypoxia 48 hours after transfection. Two days later, the cellular fraction was immunoprecipitated with anti-FLT antibody (epitope specific for domains 2 and 3; Santa Cruz, Calif.) and subsequently underwent Western blotting with an anti-VEGF or an anti-VEGFR-2 antibody. A 50 kDa band (consistent with a VEGF homodimer interacting with the intraceptor) was detected in cells transfected with pCMV.Flt23K or pCMV.Flt24K (FIG. 5A). A 30 kDa band was present in cells transfected with pCMV.Flt24K but not pCMV.Flt23K (FIG. 5B).

T1 sequence (P35968 20-1356 limits assumed): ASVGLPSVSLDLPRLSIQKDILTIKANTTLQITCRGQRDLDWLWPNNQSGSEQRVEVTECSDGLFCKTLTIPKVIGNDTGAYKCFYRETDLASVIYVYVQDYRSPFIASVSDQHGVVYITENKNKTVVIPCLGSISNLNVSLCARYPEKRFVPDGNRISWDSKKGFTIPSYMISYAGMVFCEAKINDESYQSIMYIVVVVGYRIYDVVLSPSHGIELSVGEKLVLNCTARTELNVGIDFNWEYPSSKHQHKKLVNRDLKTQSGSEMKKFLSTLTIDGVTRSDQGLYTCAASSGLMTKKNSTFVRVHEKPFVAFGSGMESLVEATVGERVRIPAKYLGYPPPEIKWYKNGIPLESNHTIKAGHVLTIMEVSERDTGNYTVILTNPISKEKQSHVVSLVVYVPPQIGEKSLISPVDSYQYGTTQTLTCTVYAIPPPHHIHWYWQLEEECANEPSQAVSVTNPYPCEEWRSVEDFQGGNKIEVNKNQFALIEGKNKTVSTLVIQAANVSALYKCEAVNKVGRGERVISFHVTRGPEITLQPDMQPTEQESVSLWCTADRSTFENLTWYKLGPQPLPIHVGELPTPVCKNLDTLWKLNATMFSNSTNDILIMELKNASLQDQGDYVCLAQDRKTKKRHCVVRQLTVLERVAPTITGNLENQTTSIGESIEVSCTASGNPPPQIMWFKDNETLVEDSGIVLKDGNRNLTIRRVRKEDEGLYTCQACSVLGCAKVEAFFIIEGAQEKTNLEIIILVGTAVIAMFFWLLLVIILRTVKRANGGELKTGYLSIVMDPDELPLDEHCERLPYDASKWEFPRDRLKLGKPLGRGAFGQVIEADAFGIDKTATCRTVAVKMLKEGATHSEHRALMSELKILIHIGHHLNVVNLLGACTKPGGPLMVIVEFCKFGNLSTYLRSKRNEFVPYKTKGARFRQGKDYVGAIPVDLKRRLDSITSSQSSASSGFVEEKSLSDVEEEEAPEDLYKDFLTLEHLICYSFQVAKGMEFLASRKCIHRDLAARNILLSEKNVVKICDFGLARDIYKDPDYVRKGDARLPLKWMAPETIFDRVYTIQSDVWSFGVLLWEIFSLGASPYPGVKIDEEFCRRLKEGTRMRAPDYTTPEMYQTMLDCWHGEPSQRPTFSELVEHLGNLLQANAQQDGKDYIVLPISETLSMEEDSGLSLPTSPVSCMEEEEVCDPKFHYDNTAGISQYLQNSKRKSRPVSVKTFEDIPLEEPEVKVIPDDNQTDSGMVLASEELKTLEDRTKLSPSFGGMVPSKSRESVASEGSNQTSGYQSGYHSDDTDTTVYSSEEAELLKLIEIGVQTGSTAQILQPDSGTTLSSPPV

binding result: no binding
B1: Flt23K intraceptor (Flt23-KDEL; domains 2 and 3 of VEGFR-1 (Flt) fused at the C-terminus to the ER retention signal KDEL) (receptor)
chain: DTGRPFVEMYSEIPEIIHMTEGRELVIPCRVTSPNITVTLKKFPLDTLIPDGKRIIWDSRKGFIISNATYKEIGLLTCEATVNGHLYKTNYLTHRQTNTIIDVQISTPRPVKLLRGHTLVLNCTATTPLNTRVQMTWSYPDEKNKRASVRRRIDQSNSHANIFYSVLTIDKMQNKDKGLYTCRVRSGPSFKSVNTSVHIYDKAFITVKHRKKDEL
notes: Expressed inside transfected cells from pCMV.Flt23K, not purified; also called pCMV.Flt23K (expression plasmid); pCMV.Flt23
